Molecular target: BCL6 BTB domain (BCL6 5-129, tag removed by HRV-3C protease) (human) (UniProt P41182)
Test: fluorescence polarisation; competition: 10 nM BCOR-AF633, 3 µM BCL6 BTB, unlabelled peptide varied; 20 mM Hepes/NaOH pH 8.0, 150 mM NaCl, 0.5 mM TCEP, 0.05% Tween 20, 1-2% DMSO; 2 h at room temperature

% inhibition at 980 µM: 16%
Substance: WVIP tetrapeptide (Ac-WVIP-NH2)
